Reference: the supplement of paper PMC12783771
± gives the standard deviation of the averaged measurements.

B1: library; a variant is named by its letters at X, in order (parent)
chain: MNIQIGELAKRTACPVVTIRFYEQEGLLPPPGRSRGNFRLYGEEHVERLQFIRHCRSLDMPLSXVRTLLSYRKRPDQDCGEVXMLLDEHIRQVESRIGALLELXHHXVELREACSGARPAQSCGILQXLSXCVCXTRGTTAHXSD

Columns and labels:
[1] = variants of: B1; assay: sfGFP reporter fluorescence (15 h) (µM FITC); higher = higher leak; conditions: library round: Round 3; ligand: none
Experimental: (§1)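 Cell-free biosensing: 1 µL Echo-assembled CFE reactions with linear PbrR variant templates (5 nM) and pPbrR-sfGFP reporter, with 1 µM Pb, 30 µM Zn or no ligand; endpoint sfGFP fluorescence after 15 h at 30 °C calibrated as µM FITC. Round 3 ML-predicted PbrR mutants; up to 3 biological replicates.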

[2] = variants of: B1; assay: sfGFP reporter fluorescence (15 h) (µM FITC); higher = stronger transcriptional activation; conditions: library round: Round 3
Experimental: as §1

| Variant | sfGFP reporter fluorescence [1] | sfGFP reporter fluorescence ([2]; ligand: 1 µM Pb) | sfGFP reporter fluorescence ([2]; ligand: 30 µM Zn) |
| --- | --- | --- | --- |
| LCKCGAAP V16C H54C C55P H106L | 0.0465 ± 0.0012 | 0.04402 ± 0.00034 | 0.0492 ± 0.00085 |
| DCKLGADY V16C H106A | 0.0446 ± 0.0041 | 0.232 ± 0.014 | 0.0501 ± 0.00089 |
| DCKVGDDP V82I L85M | 0.0458 ± 0.0022 | 0.329 ± 0.034 | 0.128 ± 0.0044 |
| KCVCMDDP V16C | 0.185 ± 0.012 | 1.75 ± 0.16 | 0.434 ± 0.039 |
| DCVLGDDP V16C H54A | 0.0426 ± 0.0029 | 0.127 ± 0.0026 | 0.0484 ± 0.0029 |
| KFVLGDDA H106A | 0.0507 ± 0.0013 | 0.541 ± 0.028 | 0.104 ± 0.0043 |
| KFVLGDDP I90A H106A | 0.0469 ± 0.002 | 0.441 ± 0.013 | 0.0549 ± 0.0013 |
| KFVLGDDP P61T H106A | 0.0442 ± 0.0014 | 0.0637 ± 0.0021 | 0.0488 ± 0.0034 |
| KFVLGDDR H106N | 0.0633 ± 0.0012 | 1.16 ± 0.054 | 0.2633 ± 0.0014 |
| KFVLGDDT H106A | 0.0446 ± 0.0026 | 0.549 ± 0.023 | 0.095 ± 0.0055 |
| LIKCGAAP H54C C55P H106L | 0.0448 ± 0.0034 | 0.0419 ± 0.0013 | 0.0486 ± 0.0017 |
| LIKLGDDP V16C M60V E81A R111A | 0.0752 ± 0.0081 | 0.0783 ± 0.012 | 0.0505 ± 0.0042 |
| LILCGAAC V16C H54C C55P E81A H106A | 0.0437 ± 0.0031 | 0.0414 ± 0.0022 | 0.0463 ± 0.0019 |
| LILCGAAC V16C H54C C55P H106A | 0.0452 ± 0.0039 | 0.0421 ± 0.0021 | 0.0492 ± 0.0021 |
| LILCGAAP V16C H54C C55P H106A | 0.0465 ± 0.0014 | 0.0436 ± 0.0014 | 0.0502 ± 0.002 |
| KITLGDDR H106A | 0.046 ± 0.001 | 0.452 ± 0.026 | 0.0503 ± 0.0012 |
| LIVCGAAP H54C C55P H106L | 0.0444 ± 0.0015 | 0.0432 ± 0.00085 | 0.0495 ± 0.0022 |
| LIVCGAAP V16C H54C C55P H106A | 0.0452 ± 0.0017 | 0.0428 ± 0.0019 | 0.0456 ± 0.0037 |
| LIVCGAAP V16C H54C C55P H106L | 0.0465 ± 0.0015 | 0.0427 ± 0.0018 | 0.0473 ± 0.0049 |
| KIVCMDDP | 0.424 ± 0.064 | 1.96 ± 0.25 | 1.78 ± 0.059 |
| TIVLGDDR H106A | 0.0524 ± 0.0029 | 0.448 ± 0.023 | 0.0673 ± 0.0027 |
| KIVLGDDR H106E | 0.0556 ± 0.0015 | 0.573 ± 0.037 | 0.0612 ± 0.0023 |
| KIVLGDDR L62I | 0.0483 ± 0.0021 | 0.453 ± 0.018 | 0.09962 ± 0.00071 |

| Variant | sfGFP reporter fluorescence [1] | sfGFP reporter fluorescence ([2]; ligand: 1 µM Pb) | sfGFP reporter fluorescence ([2]; ligand: 30 µM Zn) |
| --- | --- | --- | --- |
| KNICMDDP M60L | 2.28 ± 0.1 | 3.14 ± 0.26 | 3.216 ± 0.027 |
| DNKCGAAP H54C C55A | 0.912 ± 0.075 | 1.67 ± 0.091 | 1.92 ± 0.15 |
| LNKCGAAP H54C C55P H106L | 0.0467 ± 0.0041 | 0.044 ± 0.0032 | 0.0477 ± 0.0034 |
| DNKCGAAP H54C C55P H106L | 0.04838 ± 0.00034 | 0.0446 ± 0.0014 | 0.0485 ± 0.0037 |
| DNKCGAAY | 1.05 ± 0.072 | 2.12 ± 0.14 | 2.26 ± 0.041 |
| KNKCGADP M60L P61N | 2.59 ± 0.17 | 2.95 ± 0.29 | 2.51 ± 0.32 |
| DNKCGADY G124A | 0.267 ± 0.013 | 1.31 ± 0.084 | 2.05 ± 0.041 |
| DNKCGADY M60L | 1.36 ± 0.092 | 1.92 ± 0.1 | 2.58 ± 0.11 |
| DNKCGSAY | 0.873 ± 0.033 | 2.1 ± 0.24 | 2.35 ± 0.2 |
| DNKCIDAK M84A G124A | 0.548 ± 0.043 | 2.01 ± 0.13 | 2.75 ± 0.23 |
| KNKCIDDP M60L P61N | 1.99 ± 0.26 | 3.23 ± 0.31 | 2.88 ± 0.25 |
| DNKCMDAA D87E | 0.936 ± 0.1 | 2.16 ± 0.15 | 2.28 ± 0.19 |
| ENKCMDAK | 0.33 ± 0.045 | 1.43 ± 0.15 | 2.44 ± 0.15 |
| DNKCMDAK G124A | 0.531 ± 0.049 | 2.11 ± 0.15 | 2.65 ± 0.21 |
| DNKCMDAK P61D | 0.53 ± 0.072 | 0.903 ± 0.12 | 2.24 ± 0.45 |
| DNKCMDAK P61N | 2.25 ± 0.34 | 2.76 ± 0.33 | 3.11 ± 0.2 |
| KNKCMDDP M60L P61D | 3.01 ± 0.32 | 3.17 ± 0.26 | 3.28 ± 0.24 |
| NNKCMDDP M60L P61N | 2.66 ± 0.24 | 3.55 ± 0.13 | 3.4 ± 0.14 |
| KNKCSDDP M60L P61N | 2.09 ± 0.17 | 3.3 ± 0.17 | 3.18 ± 0.21 |
| KNKCTDDP M60L P61N | 2.34 ± 0.2 | 3.48 ± 0.11 | 3.2 ± 0.18 |
| DNKLGAPY V133A | 0.0571 ± 0.00067 | 0.174 ± 0.0037 | 0.728 ± 0.029 |
| KNKLGDAP P61N L62I V108E | 0.0795 ± 0.0049 | 0.275 ± 0.019 | 1.08 ± 0.098 |
| DNKLGDDP | 0.0412 ± 0.002 | 0.0516 ± 0.0024 | 0.416 ± 0.055 |

| Variant | sfGFP reporter fluorescence [1] | sfGFP reporter fluorescence ([2]; ligand: 1 µM Pb) | sfGFP reporter fluorescence ([2]; ligand: 30 µM Zn) |
| --- | --- | --- | --- |
| DNKLHAPW L101V | 0.06686 ± 0.00034 | 0.307 ± 0.028 | 1.11 ± 0.06 |
| KNMCMDDP P61N | 1.45 ± 0.17 | 2.43 ± 0.21 | 2.66 ± 0.22 |
| DNRCGAAP | 1.21 ± 0.066 | 2.35 ± 0.047 | 2.34 ± 0.039 |
| DNRCIDAK | 0.674 ± 0.12 | 1.93 ± 0.22 | 2.51 ± 0.34 |
| DNRCIDAK G124A | 0.395 ± 0.042 | 1.51 ± 0.12 | 2.32 ± 0.17 |
| DNRCIDDP M60L P61N | 0.808 ± 0.044 | 1.53 ± 0.025 | 2.29 ± 0.32 |
| DNRCMDAK | 1.49 ± 0.11 | 2.51 ± 0.053 | 2.61 ± 0.05 |
| DNRCMDAK D87E | 1.06 ± 0.069 | 2.46 ± 0.12 | 2.56 ± 0.13 |
| KNRCMDDP P61N | 2.26 ± 0.13 | 2.97 ± 0.17 | 2.85 ± 0.064 |
| DNRLGAPL | 0.0656 ± 0.0041 | 0.262 ± 0.0096 | 0.905 ± 0.11 |
| DNRLHCDL E109L | 0.0447 ± 0.0052 | 0.094 ± 0.0039 | 0.23 ± 0.0064 |
| KNVCGADP M60L | 3.05 ± 0.41 | 3.59 ± 0.26 | 3.01 ± 0.067 |
| KNVCGDDP M60L E81A | 2.61 ± 0.12 | 3.41 ± 0.23 | 2.76 ± 0.4 |
| KNVCGDDP M60L P61S | 1.34 ± 0.11 | 3.29 ± 0.12 | 2.58 ± 0.36 |
| DNVCIDDA M60L | 0.73 ± 0.014 | 2.2 ± 0.24 | 2.23 ± 0.2 |
| KNVCIDDP M60L P61N | 0.453 ± 0.036 | 1.86 ± 0.087 | 2.32 ± 0.15 |
| KNVCMDDP E81A | 2.21 ± 0.21 | 3.01 ± 0.4 | 2.71 ± 0.34 |
| KNVCMDDP M60L | 3.21 ± 0.26 | 3.58 ± 0.098 | 3.18 ± 0.16 |
| KNVCMDDP M60L P61N | 0.987 ± 0.13 | 2.86 ± 0.2 | 2.86 ± 0.26 |
| KNVCMDDP V16C | 1.32 ± 0.056 | 3.46 ± 0.1 | 3.28 ± 0.18 |
| KNVCMDDP V16C P61N | 0.0997 ± 0.0099 | 0.636 ± 0.067 | 0.579 ± 0.061 |
| DNVCMDDP V16C P61N | 0.092 ± 0.0024 | 0.45 ± 0.015 | 0.463 ± 0.01 |
| DNVCMDDP Y41F P61N | 0.828 ± 0.023 | 2.98 ± 0.34 | 2.92 ± 0.049 |

| Variant | sfGFP reporter fluorescence [1] | sfGFP reporter fluorescence ([2]; ligand: 1 µM Pb) | sfGFP reporter fluorescence ([2]; ligand: 30 µM Zn) |
| --- | --- | --- | --- |
| KNVEGDDP M60L P61N | 0.043 ± 0.00089 | 0.0385 ± 0.00085 | 0.047 ± 0.0012 |
| KNVLGDDR I90C H106A | 0.0676 ± 0.0026 | 0.502 ± 0.032 | 0.74 ± 0.058 |
| DNVLGDDY H54A H142C | 0.0421 ± 0.0015 | 0.0519 ± 0.0017 | 0.136 ± 0.0031 |
| KNVLMDDP M60L P61N | 0.606 ± 0.027 | 1.64 ± 0.097 | 2.45 ± 0.11 |
| DSKLGAPW | 0.043 ± 0.0014 | 0.138 ± 0.012 | 0.227 ± 0.025 |
| DSKLGHPY | 0.0395 ± 0.00071 | 0.112 ± 0.007 | 0.234 ± 0.033 |
| DSKLGMAP V108L | 0.043 | 0.0646 ± 0.004 | 0.354 ± 0.015 |
| DSKLGNRA Q121A | 0.044 ± 0.0012 | 0.209 ± 0.008 | 0.945 ± 0.054 |
| DSKLGSPP V108L | 0.0407 ± 0.0012 | 0.121 ± 0.0045 | 0.247 ± 0.0044 |
| DTKCGAAP | 0.264 ± 0.019 | 1.56 ± 0.061 | 2.21 ± 0.16 |
| DTKCGADI | 0.227 ± 0.0097 | 1.54 ± 0.036 | 2.16 ± 0.09 |
| DTKCGCDA | 0.126 ± 0.0021 | 1.6 ± 0.12 | 1.51 ± 0.051 |
| TTKCGDRP | 1.83 ± 0.057 | 2.37 ± 0.091 | 2.74 ± 0.22 |
| DTKCGSAP | 0.21 ± 0.0021 | 1.43 ± 0.041 | 2.22 ± 0.1 |
| DTKCIDAK | 0.305 ± 0.035 | 1.87 ± 0.27 | 2.86 ± 0.33 |
| DTKCIDAP I125L | 0.059 ± 0.0049 | 0.0617 ± 0.0061 | 0.614 ± 0.022 |
| DTKCMDAP G124A | 0.212 ± 0.015 | 1.58 ± 0.084 | 2.41 ± 0.38 |
| DTKIGDDP V108L E112A | 0.0428 ± 0.0025 | 0.094 ± 0.0043 | 0.294 ± 0.03 |
| DTKLGAPL Q121A | 0.0458 ± 0.0015 | 0.245 ± 0.019 | 0.407 ± 0.017 |
| DTKLGAPW Q121A | 0.0438 ± 0.0019 | 0.216 ± 0.0053 | 0.277 ± 0.013 |
